From patent US20160215061A1 (Merck Sharp & Dohme, published 2016)
Numbering of substitutions follows the chain as printed. In names and notes the source's numbering stands.

T1: recombinant mouse FcγRIIB expressed in NS0 cells (mouse, UniProt P08101 40-207, limits assumed)
T1 construct: Bought from R&D Systems; soluble analyte injected in SPR; also called rmFcgRIIB (NSO); CD32-B
T1 sequence (looked up): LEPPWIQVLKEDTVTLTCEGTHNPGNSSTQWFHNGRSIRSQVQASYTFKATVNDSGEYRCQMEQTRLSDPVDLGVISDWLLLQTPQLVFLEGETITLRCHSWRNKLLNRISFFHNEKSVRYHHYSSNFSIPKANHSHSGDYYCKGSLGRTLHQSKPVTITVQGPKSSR

T2: recombinant human FcγRIIB expressed in CHO cells (human, UniProt P31994 43-217, limits assumed)
T2 construct: Soluble analyte injected in SPR; also called human FcgRIIB; rhFcgRIIB (CHO)
T2 sequence (looked up): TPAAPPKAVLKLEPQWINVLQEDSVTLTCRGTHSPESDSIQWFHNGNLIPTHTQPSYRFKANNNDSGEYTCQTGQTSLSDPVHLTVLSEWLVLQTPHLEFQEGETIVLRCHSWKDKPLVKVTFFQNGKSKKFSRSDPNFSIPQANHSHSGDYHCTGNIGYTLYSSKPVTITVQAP

B1: F243A/V264A/S267E/L328F Fc (SEQ ID NO8) (other)
chain: AEPKSCDKTHTCPPCPAPELLGGPSVFLAPPKPKDTLMISRTPEVTCVVADVEHEDPEVKFNWYVDGVEVHNAKTKPREEQYNSTYRVVSVLTVLHQDWLNGKEYKCKVSNKAFPAPIEKTISKAKGQPREPQVYTLPPSREEMTKNQVSLTCLVKGFYPSDIAVEWESNGQPENNYKTTPPVLDSDGSFFLYSKLTVDKSRWQQGNVFSCSVMHEALHNHYTQKSLSLSPG
notes: Human IgG1 Fc fragment with F243A, V264A, S267E, L328F (EU)
B2: 183-D4/F241A Fc (SEQ ID NO13) (other)
chain: AEPKSCDKTHTCPPCPAPELLGGPSVALFPPKPKDTLMISRTPEVTCVVVDVSHEDPEVKFNWYVDGVEVHNAKTKPREEQYNSTYRVVSVLTVLHQDWLNGEEYKCKVSNEALPAPIEKTISKTKGRPREPQVYTLPPSRDELTKNQVSLTCLVKGFYPSDIAVEWESNGQPENNYKTTPPVLDSDGSFFLYSKLTVDRSRWQQGNVFSCSVMHEALHNHYTQKSLSLSPGK
notes: Human IgG1 Fc fragment with F241A, K317E, K326E, A339T, Q342R, K414R (EU)
B3: 183-D4/F241A/L328F Fc (SEQ ID NO12) (other)
chain: B2 chain with L114F
notes: Human IgG1 Fc fragment with F241A, K317E, K326E, L328F, A339T, Q342R, K414R (EU)
B4: K317E/K326E/K414R Fc (SEQ ID NO11) (other)
chain: B2 chain with A27F, T125A, R128Q
notes: Human IgG1 Fc fragment, made in glycoengineered Pichia pastoris

How the values were obtained:
[1] = target: T1, recombinant mouse FcγRIIB expressed in …; test: SPR (Biacore); capture sample on chip, rmFcgRIIB (NSO) injected; reference Herceptin
Experimental: (§1) Purified IgGs were analyzed by SDS-PAGE for expression and assayed for binding to human or mouse FcγRIIB. […] The CMS chip (GE Healthcare, Wauwatusa, Wis.) was immobilized on all flow cells with mouse anti-human IgG (Fc specific) (obtained from GE Healthcare, Wauwatusa, Wis.) according to the Biacore Human Antibody Capture Kit to ˜7000 RU. Purified full-length IgG1 variants containing mutations in Fc region (described in Example 1) were captured on the chip through immobilized mouse anti-human IgG (obtained from GE Healthcare, Wauwatusa, Wis.) followed by injection of human or mouse FcγRIIB. Human FcγRIIB was expressed in Chinese Hamster Ovary cells (Merck, Whithouse Station, N.J.) and mouse FcγRIIB was expressed in NS0 murine myeloma (R&D Systems, Minneapolis, Minn.)). Each flowcell was regenerated between each analyte injection with 3M MgCl for 40 s at 10 μl/min. Data was analyzed with Biacore T100 Evaluation Software using the 1/1 binding model for KD values, where reported. Amino acid compositions of novel variants were identified by DNA sequencing. Clones were tabulated based on response units (RU's) registered following receptor binding.
(§2) Resulting clones were fermented in 1 L bioreactor vessels to produce each of the described variants. Culture supernatants were passed over protein A coated beads to capture secreted Fc fragments. Purified Fc fragments were eluted at pH 3.0 into tubes containing 1M Tris (pH 8.0). Purified Fc fragments were analyzed by surface plasmon resonance (SPR) on Biacore for binding to human and mouse FcγRIIB as described in Example 2.

[2] = target: T2, recombinant human FcγRIIB expressed in …; test: SPR (Biacore), 1/1 binding model; reference Herceptin
[3] = target: T2, recombinant human FcγRIIB expressed in …; test: SPR (Biacore); capture sample on chip, rhFcgRIIB (CHO) injected; reference Herceptin
Experimental: as §1, §2

| Binder | Fold Increase in RU vs WT IgG1 [1] | Fold Improvement in KD vs WT IgG1 rhFcgRIIb [2] | Fold Increase in RU vs WT IgG1 [3] |
| --- | --- | --- | --- |
| B1 | 2.4 fold | 11 fold | 7 fold |
| B2 | 5 fold |  | 4.7 fold |
| B3 | 1.3 fold |  | 1.2 fold |
| B4 | 5.2 fold |  |  |
